Tests used:
Experiment in all cases: cell-based or functional assay
[1] = molecular target: HIV-1 Env of isolate MGRM-F1-017 (pseudovirus) (HIV-1)
[2] = molecular target: HIV-1 envelope glycoprotein (Env) of isolate 92WR009, subtype A (HIV-1)
[3] = molecular target: HIV-1 envelope glycoprotein (Env) of isolate 93UG077, subtype A (HIV-1)
[4] = molecular target: HIV-1 envelope glycoprotein (Env) of isolate QH0692.42, on pseudovirus (HIV-1)
[5] = molecular target: HIV-1 envelope glycoprotein (Env) of isolate THRO.18, on pseudovirus (HIV-1)
[6] = molecular target: HIV-1 Env of isolate 92UG005 (pseudovirus) (HIV-1)
[7] = molecular target: HIV-1 Env of isolate 98CN006 (pseudovirus) (HIV-1)
[8] = molecular target: HIV-1 Env of isolate JRFL (HIV-1)
[9] = molecular target: HIV-1 Env of isolate MGRM-A-002 (pseudovirus) (HIV-1)
[10] = molecular target: HIV-1 Env of isolate MGRM-C-002 (HIV-1)
[11] = molecular target: HIV-1 Env of isolate MGRM-Chronic-B-004 (HIV-1)
[12] = molecular target: HIV-1 Env of isolate MGRM-D-001 (pseudovirus) (HIV-1)
[13] = molecular target: HIV-1 Env of isolate MGRM-D-004 (pseudovirus) (HIV-1)
[14] = molecular target: HIV-1 Env of isolate MGRM-D-016 (pseudovirus) (HIV-1)
[15] = molecular target: HIV-1 Env of isolate MGRM-D-024 (HIV-1)
[16] = molecular target: HIV-1 Env of isolate MGRM-D-026 (HIV-1)
[17] = molecular target: HIV-1 Env of isolate MGRM-D-029 (HIV-1)
[18] = molecular target: HIV-1 Env of isolate MGRM-F1-004 (HIV-1)
[19] = molecular target: HIV-1 Env of isolate MGRM-F1-012 (HIV-1)
[20] = molecular target: HIV-1 Env of pseudovirus isolate MGRM-C-010 (clade C) (HIV-1)
[21] = molecular target: HIV-1 Env of pseudovirus isolate MGRM-C-017 (clade C) (HIV-1)
[22] = molecular target: HIV-1 Env of pseudovirus isolate MGRM-C-020 (clade C) (HIV-1)
[23] = molecular target: HIV-1 JR-CSF Env I415A (HIV-1 (isolate JR-CSF)) (UniProt P20871)
[24] = molecular target: HIV-1 JR-CSF Env S393A (HIV-1 (isolate JR-CSF)) (UniProt P20871)
[25] = molecular target: HIV-1 MGRM-C-028 Env (HIV-1)
[26] = molecular target: HIV-1 CMU02 Env (pseudovirus) (HIV-1)
[27] = molecular target: HIV-1 Env of isolate MGRM-G-009 (subtype G) (HIV-1)
[28] = molecular target: HIV-1 Env of isolate 92RW009 (clade A pseudovirus) (HIV-1)
[29] = molecular target: HIV-1 Env of isolate 92UG031 (clade A pseudovirus) (HIV-1)
[30] = molecular target: HIV-1 Env of isolate 93IN905 (Clade C) (HIV-1)
[31] = molecular target: HIV-1 Env of isolate 94UG103 (Clade A) (HIV-1)
[32] = molecular target: HIV-1 Env of isolate TRO.11 (Acute), clade B (HIV-1)
[33] = molecular target: HIV-1 Env of pseudovirus MGRM-F1-010 (clade F) (HIV-1)
[34] = molecular target: HIV-1 MGRM-AE-004 Env (pseudovirus) (HIV-1)
[35] = molecular target: HIV-1 MGRM-AG-001 Env (pseudovirus) (HIV-1)

Row | Substance | IC50 (µg/mL), pseudovirus neutralization [1] | IC50, pseudovirus neutralization [2] | IC50, pseudovirus neutralization [3] | IC50, pseudovirus neutralization [4] | IC50, pseudovirus neutralization [5] | IC50 (µg/mL), pseudovirus neutralization [6] | IC50 (µg/mL), pseudovirus neutralization [7] | IC50 (µg/mL), pseudovirus neutralization [8] | IC50 (µg/mL), pseudovirus neutralization [9] | IC50 (µg/mL), pseudovirus neutralization [10] | IC50 (µg/mL), pseudovirus neutralization [11] | IC50 (µg/mL), pseudovirus neutralization [12] | IC50 (µg/mL), pseudovirus neutralization [13] | IC50 (µg/mL), pseudovirus neutralization [14] | IC50 (µg/mL), pseudovirus neutralization [15] | IC50 (µg/mL), pseudovirus neutralization [16] | IC50 (µg/mL), pseudovirus neutralization [17] | IC50 (µg/mL), pseudovirus neutralization [18] | Fold IC50 increase relative to wild-type (pseudovirus neutralization) [23] | Fold IC50 increase relative to wild-type (pseudovirus neutralization) [24] | other results
1 | 4838_L06 (PGT-121) (antibody) | 16.9 µg/mL | 1.74 µg/mL | 0.019 µg/mL | 0.823 µg/mL | > 50 µg/mL |  |  |  |  |  |  |  |  |  |  |  |  |  |  |  | 
2 | 5136_H01 (PGT-131) (antibody) |  |  |  |  |  | 0.854 µg/mL | 35.3 µg/mL | 0.454 µg/mL | > 50 µg/mL | > 50 µg/mL | 0.04 µg/mL | > 50 µg/mL | 2.01 µg/mL | > 50 µg/mL | > 50 µg/mL | > 50 µg/mL | > 50 µg/mL | 0.114 µg/mL | 0.6 fold | 1.1 fold | IC50 (µg/mL), pseudovirus neutralization [19]: > 50 µg/mL; IC50, pseudovirus neutralization [20]: > 50 µg/mL; IC50, pseudovirus neutralization [21]: > 50 µg/mL; IC50, pseudovirus neutralization [22]: > 50 µg/mL
3 | 5141_B17 (PGT-126) (antibody) | > 50 µg/mL | > 50 µg/mL | 0.02 µg/mL | 0.048 µg/mL | > 50 µg/mL |  |  |  |  |  |  |  |  |  |  |  |  |  | 0.3 fold | 0.5 fold | IC50, pseudovirus neutralization [25]: 0.283 µg/mL
4 | 4877_D15 (PGT-122) (antibody) | > 50 µg/mL | 42.4 µg/mL | 0.084 µg/mL | 0.493 µg/mL | > 50 µg/mL |  |  |  |  |  |  |  |  |  |  |  |  |  |  |  | IC50, pseudovirus neutralization [25]: 2.06 µg/mL
5 | 5345_I01 (PGT-137) (antibody) |  |  |  |  |  | > 50 µg/mL | 1.22 µg/mL | > 50 µg/mL | > 50 µg/mL | 8.03 µg/mL | > 50 µg/mL | > 50 µg/mL | > 50 µg/mL | > 50 µg/mL | > 50 µg/mL | > 50 µg/mL | > 50 µg/mL | 40.3 µg/mL |  |  | IC50 (µg/mL), pseudovirus neutralization [19]: > 50 µg/mL; IC50, pseudovirus neutralization [20]: > 50 µg/mL; IC50, pseudovirus neutralization [21]: > 50 µg/mL; IC50, pseudovirus neutralization [22]: > 50 µg/mL
6 | 5114_A19 (PGT-128) (antibody) |  |  |  |  |  | 0.018 µg/mL | 0.015 µg/mL | 0.007 µg/mL | 0.149 µg/mL | 0.019 µg/mL | 0.009 µg/mL | 0.138 µg/mL | 24.9 µg/mL | > 50 µg/mL | 0.067 µg/mL | > 50 µg/mL | > 50 µg/mL | 0.027 µg/mL | 0.7 fold | 1.4 fold | IC50 (µg/mL), pseudovirus neutralization [19]: 0.007 µg/mL; IC50, pseudovirus neutralization [20]: > 50 µg/mL; IC50, pseudovirus neutralization [21]: 1.06 µg/mL; IC50, pseudovirus neutralization [22]: 5.85 µg/mL
7 | 5123_A06 (PGT-125) (antibody) | > 50 µg/mL | 0.144 µg/mL | 0.012 µg/mL | 0.048 µg/mL | > 50 µg/mL |  |  |  |  |  |  |  |  |  |  |  |  |  | 0.3 fold | 0.5 fold | Neutralization by PGT-125, IC50 [26]: > 10 µg/mL; Neutralization by PGT-125, IC80 [26]: > 10 µg/mL; Neutralization by PGT-125, IC90 [26]: > 10 µg/mL; Neutralization by PGT-125, IC95 [26]: > 10 µg/mL; IC50, pseudovirus neutralization [25]: 5.78 µg/mL
8 | 5329_C19 (PGT-136) (antibody) |  |  |  |  |  | > 50 µg/mL | 0.406 µg/mL | > 50 µg/mL | > 50 µg/mL | > 50 µg/mL | > 50 µg/mL | > 50 µg/mL | > 50 µg/mL | > 50 µg/mL | > 50 µg/mL | > 50 µg/mL | > 50 µg/mL | > 50 µg/mL |  |  | IC50 (µg/mL), pseudovirus neutralization [19]: > 50 µg/mL; IC50, pseudovirus neutralization [20]: > 50 µg/mL; IC50, pseudovirus neutralization [21]: > 50 µg/mL; IC50, pseudovirus neutralization [22]: > 50 µg/mL
9 | 5343_B08 (PGT-135) (antibody) |  |  |  |  |  | > 50 µg/mL | 0.429 µg/mL | > 50 µg/mL | > 50 µg/mL | > 50 µg/mL | > 50 µg/mL | > 50 µg/mL | > 50 µg/mL | > 50 µg/mL | > 50 µg/mL | > 50 µg/mL | 30.8 µg/mL | 0.211 µg/mL | 5 fold | 0.9 fold | IC50 (µg/mL), pseudovirus neutralization [19]: 0.01 µg/mL; IC50, pseudovirus neutralization [20]: > 50 µg/mL; IC50, pseudovirus neutralization [21]: > 50 µg/mL; IC50, pseudovirus neutralization [22]: > 50 µg/mL
10 | 4858_P08 (PGT-123) (antibody) | > 50 µg/mL | 15.7 µg/mL | 0.028 µg/mL | 0.158 µg/mL | > 50 µg/mL |  |  |  |  |  |  |  |  |  |  |  |  |  | 0.4 fold | 0.6 fold | IC50, pseudovirus neutralization [25]: 0.443 µg/mL
11 | PGV04 (antibody) |  |  |  |  |  |  |  |  |  |  |  |  |  |  |  |  |  |  |  |  | IC50 (µg/mL), pseudovirus neutralization [27]: 0.043 µg/mL
12 | 5145_B14 (PGT-127) (antibody) | > 50 µg/mL | > 50 µg/mL | 0.055 µg/mL | 0.129 µg/mL | > 50 µg/mL |  |  |  |  |  |  |  |  |  |  |  |  |  | 2.1 fold | 1.2 fold | 
13 | 1496_C09 (PG9) (TCN-109) (antibody) |  |  |  |  |  |  |  |  |  |  |  |  |  |  |  |  |  |  |  |  | IC50 (µg/ml), pseudovirus neutralization [26]: 7.69 µg/mL; IC50 (µg/ml), pseudovirus neutralization [28]: 0.03 µg/mL; IC50 (µg/ml), pseudovirus neutralization [29]: 3.08 µg/mL; IC90 (neutralization of pseudovirus) [30]: 1.89 µg/mL; IC90 (neutralization of pseudovirus) [31]: 3.37 µg/mL; IC50 (µg/mL), pseudovirus neutralization [27]: 10.7 µg/mL; IC50 (µg/ml), pseudovirus neutralization [32]: 5.43 µg/mL; IC50 [33]: 0.03 µg/mL; IC50 (µg/ml), pseudovirus neutralization [34]: 0.01 µg/mL; IC50 (µg/ml), pseudovirus neutralization [35]: 8.83 µg/mL; IC50, pseudovirus neutralization [25]: 0.121 µg/mL
14 | 5147_N06 (PGT-130) (antibody) |  |  |  |  |  | 0.959 µg/mL | 0.258 µg/mL | 0.046 µg/mL | 0.01 µg/mL | > 50 µg/mL | 0.01 µg/mL | > 50 µg/mL | 1.21 µg/mL | > 50 µg/mL | > 50 µg/mL | > 50 µg/mL | > 50 µg/mL | 0.023 µg/mL | 0.6 fold | 0.7 fold | IC50 (µg/mL), pseudovirus neutralization [19]: > 50 µg/mL; IC50, pseudovirus neutralization [20]: > 50 µg/mL; IC50, pseudovirus neutralization [21]: > 50 µg/mL; IC50, pseudovirus neutralization [22]: > 50 µg/mL; IC50, pseudovirus neutralization [25]: > 10 µg/mL

Source: patent publication US20240132578A1
